Measured values: doi:10.1101/2022.09.08.506998

Molecular target: full-length KIT(T417I,Δ418-419) (kinase-inactive K623A) (human)
Experiment: cryo-EM structure

stoichiometry N: 2
Substance: full-length KIT(T417I,Δ418-419) (kinase-inactive K623A) (receptor)
